“Also recorded” adds a separate entry of the source.

The subject of experiment [1] is tumor from Malme3MR, SNU38R cell strains. Put plainly: tumor generation in immunodeficiency mouse, peptide injected into tail vein. It counts as in vivo. To be noted: 5 times in total every 3 days for 2 weeks. As for the experimental part: If a tumor grew up to a size enough to be measured, a digital gauge was used to a size of the tumor in a uniform interval and the tumor size was calculated by a known equation (the widest length [the shortest length]^2×0.5). After inducing a tumor in the same manner, taxol was injected into a vein of the mouse's tail for inspection to tumor generation and anticancer drug resistance.
To inspect an affection of GKGKT peptide to tumor generation, after injecting high-CAGE melanoma and liver-cancer cell strains (Malme3MR, SNU38R) into the side abdomen of an immunodeficiency mouse by a known method and then inducing a tumor, the GTGKT peptide was injected into a vein of the mouse's tail 5 times in total every 3 days for 2 weeks and a size variation of the tumor was examined. As a result, it could be seen from FIG. 8A that the GTGKT peptide reduced a size of the tumor due to the cancer cell strains.

Experiment [2] relates to Malme3M^R, SNU38M^R cell strains. Put plainly: apoptosis against an anticancer drug (FAK and PARP cleavage, Western blot). It counts as cell-based. As to conditions: melanoma and liver cancer cell strains.
The next experiment has as its target T1, CAGE (Homo sapiens, UniProt Q86TM3).
T1 construct: endogenous in cells; host or cells: anticancer drug-resistance cell strains (Malme3M^R, SNU387^R)
Put plainly: binding of peptide to CAGE in anticancer drug-resistance cell strains.

Experiment [3] has as its target T2, CAGE-GSK3β inter-binding (Homo sapiens, UniProt Q86TM3). Put plainly: Western blot and immunoprecipitation of tumor tissue after the mouse experiment. It counts as in vivo. More on the design: from tissue; host or cells: xenograft tumour tissue from Malme3M^R / SNU387^R cells in immunodeficiency mouse. The text has this:
After finishing the experiment, a protein was collected from the tumor tissue through a known method, and then activity of protein expression and an inter-binding state were conformed through the Western blot and the immunoprecipitation.
For orientation: In western blotting, separated proteins are transferred to a membrane and probed.

Experiment [4] relates to Malme3M^R, SNU38M^R, AGS^R cell strains. Put plainly: MTT assay of anticancer drug resistance. In kind it is cell-based. As to conditions: celastrol-resistance cell strains. On the procedure:
To confirm anticancer activity of a GTGKT-based oligopeptide, the MIT assay and the western blot according to a known method was performed using an immunodeficiency mouse. Then, it could be seen how the GKCKT-based oligopeptide affected tumor generation.
After transfecting a GTGKT peptide into melanoma, liver-cancer, and gastric-cancer cell strains (Malme3M^R, SNU38M^R, AGS^R) by concentration, anticancer drug resistance was inspected through the MTT assay.
Background: Formazan colour is commonly taken as a measure of viable cells.

The target of experiment [5] is T2, CAGE-GSK3β inter-binding. Put plainly: Western blot and immunoprecipitation in celastrol-resistance cell strains. It counts as cell-based. More on the design: endogenous in cells; host or cells: Malme3M^R-Taxol (A2); Malme3M^R, SNU387^R (printed SNU3SM^R/SNU38^R), AGS^R (A3). As to conditions: for expression level of Cyclin D1 / inter-binding between CAGE and GSK3β proteins: celastrol-resistance cell strains (melanoma, liver cancer, gastric cancer). On the procedure: (§1) To confirm an affection of CAGE-derived oligopeptide to the interbinding and GSK3β Ser9 phosphorylation of a CAGE, a GTGKT (Sequence No.1) peptide and a specific-residue deleted and mutated peptide based on the GTGKT peptide were prepared and, after collecting proteins by a known method after transfection into respective cell stains, the Western blot and the immunoprecipitation were preformed to inspect an anticancer drug-resistance induction mechanism of the CAGE. GTGKT includes ATP binding sites of CAGE (the right panel of FIG. 3A).

The target of experiment [6] is reassociated CAGE protein (Homo sapiens, UniProt Q86TM3). Put plainly: in vitro kinase assay: phosphorylation of GSK3β Ser9 peptide by reassociated CAGE protein. To be noted: RTTSFAE peptide as substrate. In kind it is biochemical. As for the experimental part:
A GSK3β-described peptide RTTSFAE including GSK3β Ser9 residues was prepared for a temperament (the left panel of FIG. 3A) and phosphorylation of the GSK3β Ser9 residues by a reassociated CAGE protein was confirmed through an in vitro kinase assay by using the RTTSFAE peptide as the temperament (the left panel of FIG. 4B).

The target of experiment [7] is T2, CAGE-GSK3β inter-binding. Put plainly: Western blot and immunoprecipitation in taxol-resistance melanoma cell strain. More on the design: endogenous in cells; host or cells: Malme3M^R-Taxol (A2); Malme3M^R, SNU387^R (printed SNU3SM^R/SNU38^R), AGS^R (A3). In kind it is cell-based. As to conditions: Malme3M^R-Taxol; for CAGE-GSK3β inter-binding: immunoprecipitation. As for the experimental part: as §1
To examine residues necessary for anticancer activity of a GTGKT peptide, after preparing a peptide for which the 273′rd Thr residue is deleted (GTGK) or substituted (GTGKA, sequence No. 2) with Ala in CAFE, and preparing a peptide for which the 272′nd […] residue is substituted (GTGRT) with Arg, the same manner was performed.

T2 sequence (Q86TM3 whole entry): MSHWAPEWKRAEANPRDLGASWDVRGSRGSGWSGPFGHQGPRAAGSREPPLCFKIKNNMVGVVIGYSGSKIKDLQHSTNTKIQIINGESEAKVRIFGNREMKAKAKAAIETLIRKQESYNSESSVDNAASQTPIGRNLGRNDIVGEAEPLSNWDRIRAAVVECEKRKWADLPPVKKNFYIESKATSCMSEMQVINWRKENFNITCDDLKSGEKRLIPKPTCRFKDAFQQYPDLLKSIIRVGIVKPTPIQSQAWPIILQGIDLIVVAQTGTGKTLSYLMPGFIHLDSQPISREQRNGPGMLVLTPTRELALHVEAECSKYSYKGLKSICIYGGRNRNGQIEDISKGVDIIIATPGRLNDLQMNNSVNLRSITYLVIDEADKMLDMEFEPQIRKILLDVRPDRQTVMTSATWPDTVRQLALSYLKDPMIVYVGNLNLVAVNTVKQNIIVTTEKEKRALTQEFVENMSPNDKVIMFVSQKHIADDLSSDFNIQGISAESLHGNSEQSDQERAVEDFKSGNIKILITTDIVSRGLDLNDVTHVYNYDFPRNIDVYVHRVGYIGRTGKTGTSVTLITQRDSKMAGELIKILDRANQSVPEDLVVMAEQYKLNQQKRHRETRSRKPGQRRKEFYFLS
Chain of reassociated CAGE protein (Q86TM3 whole entry): as above
T1 sequence (Q86TM3 whole entry): as above

As for GTGKT (CAGE-derived peptide), the “size of the tumor” value in experiment [1] is “reduced”. Besides, in experiment [2], the “apoptosis against an anticancer drug” value is given as “induced apoptosis”. For the same substance, the “binding to CAGE” value with CAGE is “bound specifically”. For the same substance, in the experiment with CAGE-GSK3β inter-binding [3] (Western blot), the “expression of MDR1 in tumor tissue” value was “reduced”, the “phosphorylation state of GSK3β Ser9 in tumor tissue” value was “dephosphorylation” and the “protein expression of Cyclin D1 in tumor tissue” value is “decrease”. Besides, the “inter-binding between CAGE and GSK3β proteins in tumor tissue” value with CAGE-GSK3β inter-binding [3] (immunoprecipitation) is recorded as “suppressed”. The anticancer drug resistance result in experiment [4] was “suppressed”. Moreover, the “phosphorylation state of GSK3β Ser9” value in the experiment with CAGE-GSK3β inter-binding [5] (Malme3M^R, SNU38^R treated with peptide) is “suppressed dephosphorylation”. Further, in the experiment with CAGE-GSK3β inter-binding [5], the “expression level of Cyclin D1” value is “control an expression level of Cyclin D1; also recorded: suppressed”; the “inter-binding between CAGE and GSK3β proteins” value is “suppress; also recorded: hindered”. The “phosphorylation of GSK3β Ser9 residues due to the reassociated CAGE protein” value in experiment [6] is listed as “suppressed in phosphorylation”. The “phosphorylation of GSK3β Ser9 residues due to the reassociated CAGE protein” value in experiment [6] (listed as GTCKT) is given as “suppressed”. Further, in the experiment with CAGE-GSK3β inter-binding [7] (Western blot), the “phosphorylation of GSK3β Ser9 residues” value is listed as “suppress” and the “protein accumulation / expression level of Cyclin D1” value was “suppress”. For the same substance, the CAGE-GSK3β inter-binding result with CAGE-GSK3β inter-binding [7] is recorded as “hindered”.

Take “GTGKA (CAGE-derived peptide) [GTGKT peptide in which the 273rd Thr residue is substituted with Ala]”: the “apoptosis against an anticancer drug” value in experiment [2] is “induced cell apoptosis”. Further, in the experiment with CAGE-GSK3β inter-binding [5], the “expression level of Cyclin D1” value was “control an expression level of Cyclin D1”; the “inter-binding between CAGE and GSK3β proteins” value is listed as “suppress”. In addition, the “protein accumulation / expression level of Cyclin D1” value with CAGE-GSK3β inter-binding [7] (Western blot) is on record as “control an expression level of Cyclin D1”. Moreover, in the experiment with CAGE-GSK3β inter-binding [7], the CAGE-GSK3β inter-binding result is given as “suppressed”.

Source of the values: patent US10716826B2, “Compositions for overcoming anti-cancer drug-resistance or compositions for anti-cancer activity employing CAGE-derived peptides” (L-Base Co., Ltd., priority 2015, dated 2020).
